Results reported in the supplement of paper PMC10065799, “High-throughput profiling of sequence recognition by tyrosine kinases and SH2 domains using bacterial peptide display” (eLife, 2023).

Assays:
[1] = target: Grb2 SH2 (UniProt P62993); assay: SH2 binding enrichment of the phosphorylated peptide, bacterial display (enrichment ratio); higher = better substrate or ligand; peptides without Tyr show the background
[2] = target: c-Src SH2; assay: as above
[3] = target: SHP2-C SH2; assay: as above
[4] = target: EPHB2 (UniProt P29323); assay: phosphorylation enrichment, bacterial display (enrichment ratio); higher = better substrate or ligand; peptides without Tyr show the background
[5] = target: EPHB1 (UniProt P54762); assay: as above
[6] = system: c-Abl (mouse); assay: as above
[7] = target: Fes (UniProt P07332); assay: as above
[8] = target: FGFR1 (UniProt P11362); assay: as above
[9] = target: Jak2 (UniProt O60674); assay: as above
[10] = target: MERTK (UniProt Q12866); assay: as above
[11] = system: Fer (mouse); assay: as above
[12] = target: Fyn (UniProt P06241); assay: as above
[13] = system: c-Src; assay: as above
[14] = system: AncSZ; assay: as above
[15] = target: Hck (UniProt P08631); assay: as above
[16] = target: FGFR3 (UniProt P22607); assay: as above
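For SH2 binding enrichment of the phosphorylated peptide, bacterial display in this document: peptide library displayed on the E. coli surface as eCPX fusions, selected cells deep-sequenced, score is each peptide's frequency after selection divided by its frequency in the input.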
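For phosphorylation enrichment, bacterial display in this document: 11-residue human phosphosite peptides and single-mutation variants displayed on the E. coli surface, counted by deep sequencing, each peptide's frequency after selection divided by its frequency in the unselected input library; frequency after pTyr selection over input frequency; kinase dosed for 20-30% of maximal phosphorylation in three min.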

EPHB1, sequence (P54762 whole entry, looked up): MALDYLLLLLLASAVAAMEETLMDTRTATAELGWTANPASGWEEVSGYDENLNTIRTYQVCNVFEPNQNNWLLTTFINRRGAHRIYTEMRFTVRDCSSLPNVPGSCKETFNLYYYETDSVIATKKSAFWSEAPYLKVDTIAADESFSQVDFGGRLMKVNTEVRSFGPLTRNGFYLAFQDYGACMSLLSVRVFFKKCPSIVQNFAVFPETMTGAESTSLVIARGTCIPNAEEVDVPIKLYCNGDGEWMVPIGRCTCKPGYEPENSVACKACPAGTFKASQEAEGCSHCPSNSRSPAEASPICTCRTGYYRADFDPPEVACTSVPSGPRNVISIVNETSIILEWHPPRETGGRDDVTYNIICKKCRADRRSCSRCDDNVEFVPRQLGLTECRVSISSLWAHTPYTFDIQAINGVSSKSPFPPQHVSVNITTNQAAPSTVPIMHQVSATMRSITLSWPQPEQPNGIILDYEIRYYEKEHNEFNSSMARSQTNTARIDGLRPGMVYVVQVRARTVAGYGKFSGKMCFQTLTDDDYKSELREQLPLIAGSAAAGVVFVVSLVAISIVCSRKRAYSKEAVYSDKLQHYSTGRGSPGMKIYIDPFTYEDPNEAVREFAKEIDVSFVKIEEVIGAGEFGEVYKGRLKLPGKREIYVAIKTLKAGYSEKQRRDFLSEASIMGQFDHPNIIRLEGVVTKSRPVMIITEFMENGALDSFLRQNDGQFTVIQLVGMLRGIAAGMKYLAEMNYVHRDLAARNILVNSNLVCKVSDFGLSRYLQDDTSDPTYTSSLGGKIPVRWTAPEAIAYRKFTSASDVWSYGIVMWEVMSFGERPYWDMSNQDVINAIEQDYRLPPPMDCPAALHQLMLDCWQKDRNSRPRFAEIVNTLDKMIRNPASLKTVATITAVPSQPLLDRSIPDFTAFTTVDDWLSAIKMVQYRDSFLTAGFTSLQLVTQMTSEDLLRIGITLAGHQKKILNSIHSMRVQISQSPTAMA
Jak2, sequence (O60674 whole entry, looked up): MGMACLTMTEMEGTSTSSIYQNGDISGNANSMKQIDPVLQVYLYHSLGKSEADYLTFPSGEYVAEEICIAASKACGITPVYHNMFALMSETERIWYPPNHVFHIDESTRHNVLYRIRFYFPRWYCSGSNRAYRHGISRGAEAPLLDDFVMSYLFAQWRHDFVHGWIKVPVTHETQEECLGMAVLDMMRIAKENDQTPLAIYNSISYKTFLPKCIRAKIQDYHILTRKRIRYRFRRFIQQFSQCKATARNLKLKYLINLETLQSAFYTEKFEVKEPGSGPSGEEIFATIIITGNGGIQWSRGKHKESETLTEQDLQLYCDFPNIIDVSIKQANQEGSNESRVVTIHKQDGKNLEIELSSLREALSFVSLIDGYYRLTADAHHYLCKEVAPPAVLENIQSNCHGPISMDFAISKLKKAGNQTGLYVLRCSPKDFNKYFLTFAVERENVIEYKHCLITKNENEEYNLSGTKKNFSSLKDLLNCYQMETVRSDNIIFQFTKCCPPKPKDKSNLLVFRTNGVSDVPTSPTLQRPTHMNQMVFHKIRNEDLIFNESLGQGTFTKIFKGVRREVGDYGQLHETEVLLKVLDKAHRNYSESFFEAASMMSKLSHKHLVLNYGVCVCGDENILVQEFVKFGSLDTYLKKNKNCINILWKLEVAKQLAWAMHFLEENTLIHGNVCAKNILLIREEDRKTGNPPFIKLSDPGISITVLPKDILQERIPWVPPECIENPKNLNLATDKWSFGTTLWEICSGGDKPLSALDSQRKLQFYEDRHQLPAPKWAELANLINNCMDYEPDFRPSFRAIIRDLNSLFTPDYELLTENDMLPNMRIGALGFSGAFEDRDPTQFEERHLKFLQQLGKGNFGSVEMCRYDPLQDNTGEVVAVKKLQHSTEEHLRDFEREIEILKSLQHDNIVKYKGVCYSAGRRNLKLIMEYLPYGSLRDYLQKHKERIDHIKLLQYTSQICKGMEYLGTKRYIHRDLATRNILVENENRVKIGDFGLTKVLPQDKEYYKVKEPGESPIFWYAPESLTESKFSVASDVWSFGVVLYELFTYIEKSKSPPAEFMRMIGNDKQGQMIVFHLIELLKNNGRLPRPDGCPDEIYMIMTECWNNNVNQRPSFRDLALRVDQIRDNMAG
Grb2 SH2, sequence (P62993 whole entry, looked up): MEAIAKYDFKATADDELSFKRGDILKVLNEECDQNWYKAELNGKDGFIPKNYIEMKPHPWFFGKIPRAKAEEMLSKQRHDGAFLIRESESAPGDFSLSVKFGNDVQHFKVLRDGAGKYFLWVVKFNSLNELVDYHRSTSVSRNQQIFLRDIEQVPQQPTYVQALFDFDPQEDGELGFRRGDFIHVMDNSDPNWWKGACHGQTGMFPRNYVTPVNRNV
MERTK, sequence (Q12866 whole entry, looked up): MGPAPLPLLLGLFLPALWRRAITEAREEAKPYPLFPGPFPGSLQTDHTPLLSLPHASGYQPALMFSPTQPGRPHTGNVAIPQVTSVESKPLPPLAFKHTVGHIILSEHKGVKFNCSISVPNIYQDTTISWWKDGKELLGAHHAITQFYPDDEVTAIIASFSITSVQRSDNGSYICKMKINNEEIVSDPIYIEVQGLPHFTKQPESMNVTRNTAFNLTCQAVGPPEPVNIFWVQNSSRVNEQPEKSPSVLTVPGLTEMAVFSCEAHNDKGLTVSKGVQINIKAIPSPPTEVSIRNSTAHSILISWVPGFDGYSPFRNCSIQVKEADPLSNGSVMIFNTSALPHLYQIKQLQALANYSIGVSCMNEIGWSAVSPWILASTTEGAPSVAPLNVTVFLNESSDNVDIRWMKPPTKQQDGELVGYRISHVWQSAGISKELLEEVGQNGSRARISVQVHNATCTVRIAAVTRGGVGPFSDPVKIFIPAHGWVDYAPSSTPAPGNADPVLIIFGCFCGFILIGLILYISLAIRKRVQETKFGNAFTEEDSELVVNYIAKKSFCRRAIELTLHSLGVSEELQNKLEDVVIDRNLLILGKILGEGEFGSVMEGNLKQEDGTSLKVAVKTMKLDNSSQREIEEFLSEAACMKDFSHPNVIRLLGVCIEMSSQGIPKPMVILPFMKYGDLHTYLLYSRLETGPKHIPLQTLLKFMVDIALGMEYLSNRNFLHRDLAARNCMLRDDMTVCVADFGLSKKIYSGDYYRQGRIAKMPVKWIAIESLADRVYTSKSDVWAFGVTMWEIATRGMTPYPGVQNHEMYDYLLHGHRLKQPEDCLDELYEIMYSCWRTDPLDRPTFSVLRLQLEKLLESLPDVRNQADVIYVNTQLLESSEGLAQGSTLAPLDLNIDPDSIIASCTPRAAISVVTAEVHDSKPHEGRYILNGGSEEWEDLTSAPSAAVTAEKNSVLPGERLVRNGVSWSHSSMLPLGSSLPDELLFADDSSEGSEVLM
Fes, sequence (P07332 whole entry, looked up): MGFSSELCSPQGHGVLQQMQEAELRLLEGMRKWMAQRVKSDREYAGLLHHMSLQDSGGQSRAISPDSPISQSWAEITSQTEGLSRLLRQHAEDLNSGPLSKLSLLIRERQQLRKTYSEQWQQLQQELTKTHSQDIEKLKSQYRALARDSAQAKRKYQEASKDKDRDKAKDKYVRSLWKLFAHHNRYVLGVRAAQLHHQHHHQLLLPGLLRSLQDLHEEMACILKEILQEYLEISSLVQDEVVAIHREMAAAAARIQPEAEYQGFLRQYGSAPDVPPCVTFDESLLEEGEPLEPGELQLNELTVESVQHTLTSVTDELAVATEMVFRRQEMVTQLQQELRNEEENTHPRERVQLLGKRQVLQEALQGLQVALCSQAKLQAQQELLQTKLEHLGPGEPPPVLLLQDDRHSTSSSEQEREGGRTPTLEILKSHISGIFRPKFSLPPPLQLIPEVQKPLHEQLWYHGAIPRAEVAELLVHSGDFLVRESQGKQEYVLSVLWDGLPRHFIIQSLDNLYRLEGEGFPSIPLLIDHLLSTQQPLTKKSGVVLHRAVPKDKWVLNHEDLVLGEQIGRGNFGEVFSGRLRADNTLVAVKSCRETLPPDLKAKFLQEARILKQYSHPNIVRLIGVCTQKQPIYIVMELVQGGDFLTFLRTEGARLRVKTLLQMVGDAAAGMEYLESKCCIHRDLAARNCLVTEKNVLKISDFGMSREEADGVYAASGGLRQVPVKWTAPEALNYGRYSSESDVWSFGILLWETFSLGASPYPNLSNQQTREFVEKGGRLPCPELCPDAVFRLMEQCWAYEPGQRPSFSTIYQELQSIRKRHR
Fyn, sequence (P06241 whole entry, looked up): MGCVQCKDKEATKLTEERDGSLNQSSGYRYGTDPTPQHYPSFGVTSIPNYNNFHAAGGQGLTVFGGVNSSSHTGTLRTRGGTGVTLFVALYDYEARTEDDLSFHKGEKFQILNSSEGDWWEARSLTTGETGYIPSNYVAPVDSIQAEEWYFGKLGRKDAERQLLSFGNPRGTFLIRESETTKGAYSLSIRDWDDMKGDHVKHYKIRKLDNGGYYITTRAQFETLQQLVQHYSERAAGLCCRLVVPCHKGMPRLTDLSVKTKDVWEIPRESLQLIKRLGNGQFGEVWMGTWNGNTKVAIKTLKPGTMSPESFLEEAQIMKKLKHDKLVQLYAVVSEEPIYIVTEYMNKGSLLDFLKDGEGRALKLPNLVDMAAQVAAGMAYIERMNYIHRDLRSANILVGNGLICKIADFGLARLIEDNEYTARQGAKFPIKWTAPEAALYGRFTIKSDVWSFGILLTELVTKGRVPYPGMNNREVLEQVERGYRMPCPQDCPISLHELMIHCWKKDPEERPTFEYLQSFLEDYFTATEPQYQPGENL

Sequence	SH2 binding enrichment [1]	SH2 binding enrichment [2]	SH2 binding enrichment [3]	phosphorylation enrichment [4]	phosphorylation enrichment [5]	phosphorylation enrichment [6]	phosphorylation enrichment [7]	phosphorylation enrichment [8]	phosphorylation enrichment [9]	phosphorylation enrichment [10]	phosphorylation enrichment [11]	phosphorylation enrichment [12]	phosphorylation enrichment [13]	phosphorylation enrichment [14]	phosphorylation enrichment [15]	phosphorylation enrichment [16]
QWRTKYEMDAI [MYH7_Y1375_T1377M]	0.891	0.549	0.522	0.4	0.479	0.5	0.964	0.58	0.519	0.384	0.365	0.773	0.344	1.12	0.561	0.843
HEGKIYEYNQV [ZNF665_Y162]	1.18	2.25	0.672	0.987	1.06	5.38	1.56	0.746	1.39	6.51	18.4	3.02	4.23	1.98	2.04	0.81
TVDASYFGGRG [ANTXR2_Y380_YF]	1.01	0.474	0.513	0.337	0.333	0.519	0.567	0.372	0.677	0.438	0.312	0.403	0.413	0.569	0.425	0.394
PVGDAYKKKGL [NMNAT1_Y55]	0.831	0.626	0.673	0.924	0.501	0.574	0.976	0.651	0.787	0.874	0.609	0.522	0.493	0.677	0.559	0.624
PMQLPHDSTWE [PDGFRB_Y589_Y589H]	0.679	0.383	0.555	0.776	0.829	1.61	1.96	0.66	1.34	0.531	0.737	0.582	0.628	2.22	0.78	1.23
QTPVLYAMLDH [MPZ_Y220]	0.837	0.922	2.71	8.88	10.7	2.67	1.02	3.44	0.845	10.7	9.39	5.21	4.54	0.853	7.14	2.84
RIGRKYKKVRF [F8_Y442]	0.488	0.254	0.275	0.511	0.338	0.298	0.341	0.352	0.432	0.351	0.298	0.36	0.385	0.47	0.356	0.364
LSSISYVGCSL [ADGRD1_Y571]	1.13	0.567	1.1	1.11	0.76	0.79	1.01	0.719	0.871	0.541	0.445	0.681	0.605	1.01	0.747	0.838
PRLLRYLQLDF [ASB10_Y457]	1.27	1.11	1.6	0.73	0.995	1.04	1.67	0.648	1.53	0.701	0.662	0.692	0.616	1.39	0.65	0.873
GVVVPYEPPEV [TP53_Y220_S215G]	0.614	0.575	0.636	0.559	0.493	0.695	0.905	0.39	1.25	0.387	0.563	0.366	0.352	0.892	0.41	0.581
EFISESCGEII [EZH2_Y641_Y641S]	1	0.532	0.716	0.752	0.544	0.783	1.19	0.567	1.04	0.419	0.484	0.484	0.568	1.17	0.476	0.592
RNPLRYTSILT [OR51B6_Y130_S126N]	1.86	3.12	3.4	0.482	0.478	0.697	0.794	0.582	0.892	0.484	0.474	0.532	0.65	0.689	0.498	0.738
TTSQLYDAMPI [PDPK1_Y9_V12M]	0.854	0.712	0.417	6.17	8.16	0.706	0.794	0.537	0.665	9.19	12.4	6.16	3.9	0.986	8.57	0.809
GDFSRYDEGSG [RECQL5_Y484]	0.737	0.562	0.664	0.481	0.523	0.799	1.16	0.471	0.905	0.513	0.439	0.502	0.534	0.889	0.494	0.662
DLRGIYQKLVI	1.23	0.721	1.09	1.32	1.81	1.76	1.4	0.825	0.869	4.99	7.47	6.38	5.56	0.826	6.68	0.854
KNKNRYKNILP [PTPN11_Y279]	1.05	0.637	0.888	0.665	0.601	0.877	1.03	0.598	0.984	0.799	0.703	0.644	0.941	0.78	0.851	0.889
TVINKYQGKLF [HGD_Y249]	0.838	0.504	0.811	0.436	0.336	0.513	0.596	0.473	0.545	0.398	0.372	0.414	0.449	0.514	0.447	0.401

Sequence	SH2 binding enrichment [1]	SH2 binding enrichment [2]	SH2 binding enrichment [3]	phosphorylation enrichment [4]	phosphorylation enrichment [5]	phosphorylation enrichment [6]	phosphorylation enrichment [7]	phosphorylation enrichment [8]	phosphorylation enrichment [9]	phosphorylation enrichment [10]	phosphorylation enrichment [11]	phosphorylation enrichment [12]	phosphorylation enrichment [13]	phosphorylation enrichment [14]	phosphorylation enrichment [15]	phosphorylation enrichment [16]
TIMTDYNPNYC [ALK_Y1092]	1.11	0.663	0.654	0.531	0.999	0.923	1.26	0.715	1.24	0.6	0.548	0.439	0.552	1.33	0.66	0.904
KLPFLYDDPFS [GPX2_Y127_P126L_YF]	0.846	1.23	0.841	4.62	3.99	0.736	0.995	0.589	1.03	2.66	1.6	0.672	0.641	1.07	1.5	0.62
GFEVVYMTEPI [HSP90AB1_Y512]	0.85	0.605	0.694	0.537	0.527	0.693	1.34	0.625	1.4	0.405	0.403	0.557	0.8	1.37	0.668	0.879
ENFSEYQEISV [HEMGN_Y150_A154S]	0.827	0.617	0.749	1.46	2.45	0.965	1.39	1.89	1.14	0.659	1.42	0.594	0.873	1.59	0.987	1.53
LERFIYNREEF [HLA-DPB1_Y59_F64Y_YF]	0.704	0.607	0.631	0.76	0.63	0.857	1.49	0.632	1.39	0.652	0.719	1.08	2.07	1.68	1.29	1.79
DGYTDYAEFAK [MCFD2_Y138_I136T]	0.651	1.22	0.592	0.706	0.829	0.734	0.844	0.754	0.765	0.463	0.4	0.96	0.942	1.03	0.74	0.699
GVASDYKCVDP [VPS13B_Y1991_I1994V]	0.845	0.622	0.631	0.62	0.624	0.791	1.16	0.533	0.964	0.476	0.548	0.504	0.458	1.05	0.537	0.821
RPQDGFRIVQH [PTPRT_Y1329_Y1329F]	0.766	0.586	0.734	0.426	0.62	0.836	0.838	0.43	0.561	0.52	0.417	0.597	0.483	0.769	0.532	0.45
YAFQLYDLDPD [CHP2_Y123_R127P]	0.986	1.28	1.71	0.998	1.52	0.78	1.37	1.65	1.32	2.01	0.916	4.7	5	1.66	2.56	1.37
FKELVYETVRV [FSHB_Y76]	0.751	0.77	0.961	9.8	10.2	18	6.92	3.22	0.894	9.94	18.5	11.2	8.98	2.11	12.4	1.57
GQDLLYEDEDL [PACS1_Y303_F302L]	0.8	0.505	0.632	0.733	0.812	0.855	1.43	0.559	1.18	0.595	2.38	0.674	0.613	1.6	0.626	0.889
GGDQPYSGAGD [TYRO3_Y828_R824G]	0.872	0.596	0.64	0.481	0.501	0.562	0.791	0.485	0.775	0.408	0.436	0.453	0.432	0.673	0.474	0.698
VPLATYMRIFK [RPL21_Y30_YF]	0.602	0.535	0.546	0.425	0.406	0.477	0.881	0.408	0.614	0.35	0.406	0.462	0.486	0.733	0.537	0.501
GTHCHYKAPIV [FZD9_Y569_T573I]	0.995	0.953	0.953	0.532	0.513	3.44	0.858	0.531	0.658	0.4	0.58	0.428	0.395	1.32	0.544	0.636
RFLRGYQQDAF [HLA-A_Y137_R138Q_YF]	0.58	0.374	0.581	0.518	0.796	0.81	0.684	0.803	0.965	0.558	0.518	0.685	0.603	1.11	0.693	0.677
FQQLFYLLQTN [IQGAP2_Y890_YF]	1.2	0.892	1.47	0.796	0.884	0.897	1.5	0.514	1.34	0.867	0.561	0.608	0.779	1.51	0.688	1.26
